Test results reported in article PMC5738273 (Journal of molecular biology, 2017).

Experiments:
MST [1] = molecular target: the molecule itself; assay: MST
MST [2] = molecular target: the molecule itself; assay: MST; remark: listed apart in the source
MST [3] = molecular target: the molecule itself; assay: MST; remark: listed apart in the source
ITC = molecular target: the molecule itself; assay: ITC
MST [4] = molecular target: the molecule itself; assay: MST; remark: listed apart in the source

B1: wild-type HdeA (natural protein, Escherichia coli, UniProt P0AES9 22-110, looked up)
chain: ADAQKAADNKKPVNSWTCEDFLAVDESFQPTAVGFAEALNNKDKPEDAVLDVQGIATVTPAIVQACTQDKQANFKDKVKGEWDKIKKDM
- Kd (MST [1]): 1200 ± 200 nM
- Kd (MST [2]): 640 ± 170 nM
- Kd (MST [3]): 750 ± 310 nM
- Kd (ITC): 64000 ± 8000 nM

B2: HdeA E37Q (natural protein, Escherichia coli, UniProt P0AES9 22-110, looked up)
chain: ADAQKAADNKKPVNSWTCEDFLAVDESFQPTAVGFAQALNNKDKPEDAVLDVQGIATVTPAIVQACTQDKQANFKDKVKGEWDKIKKDM
- Kd (MST [4]): 490 ± 100 nM
- Kd (MST [2]): 550 ± 100 nM
